Experimental data published in patent US20030129186A1 (published 2003).

Experiments:
[1] = target: T1, p97 receptor (melanotransferrin receptor, MTf-R) on bovine brain capillary endothelial cells (BBCECs) (bovine); assay: cell-based or functional assay
[2] = target: p97 receptor on isolated human brain capillaries (human); assay: cell-based or functional assay
[3] = target: T1, p97 receptor (melanotransferrin …); assay: [125I]-p97 (25 nM) binding to BBCECs, 2 h at 4 C, with or without saponin
[4] = target: T1, p97 receptor (melanotransferrin …); assay: Scatchard plot of specific [125I]-p97 binding to saponin-treated BBCECs (FIG. 12c)
[5] = target: T1, p97 receptor (melanotransferrin …); assay: Scatchard analysis of [125I]-p97 binding to saponin-permeabilized BBCEC monolayers at 4 C, displaced by unlabelled p97

decrease in apical-to-basal transport of [125I]-p97 (25 nM) across BBCEC monolayers with a 200-fold molar excess of unlabelled p97 [1]: 69% | decrease in uptake of [125I]-p97 (100 nM) into isolated human brain capillaries, 1 h at 37 C, with a 50-fold molar excess of unlabelled p97 [2]: 60% | fold increase of [125I]-p97 associated with cells after saponin permeabilization (against untreated cells) [3]: 4 fold | Kd [4]: ~1 µM | Kd [5]: 1.4 µM
B1: recombinant human melanotransferrin (p97) (ligand, UniProt P08582 20-709, looked up)
chain: GMEVRWCATSDPEQHKCGNMSEAFREAGIQPSLLCVRGTSADHCVQLIAAQEADAITLDGGAIYEAGKEHGLKPVVGEVYDQEVGTSYYAVAVVRRSSHVTIDTLKGVKSCHTGINRTVGWNVPVGYLVESGRLSVMGCDVLKAVSDYFGGSCVPGAGETSYSESLCRLCRGDSSGEGVCDKSPLERYYDYSGAFRCLAEGAGDVAFVKHSTVLENTDGKTLPSWGQALLSQDFELLCRDGSRADVTEWRQCHLARVPAHAVVVRADTDGGLIFRLLNEGQRLFSHEGSSFQMFSSEAYGQKDLLFKDSTSELVPIATQTYEAWLGHEYLHAMKGLLCDPNRLPPYLRWCVLSTPEIQKCGDMAVAFRRQRLKPEIQCVSAKSPQHCMERIQAEQVDAVTLSGEDIYTAGKTYGLVPAAGEHYAPEDSSNSYYVVAVVRRDSSHAFTLDELRGKRSCHAGFGSPAGWDVPVGALIQRGFIRPKDCDVLTAVSEFFNASCVPVNNPKNYPSSLCALCVGDEQGRNKCVGNSQERYYGYRGAFRCLVENAGDVAFVRHTTVFDNTNGHNSEPWAAELRSEDYELLCPNGARAEVSQFAACNLAQIPPHAVMVRPDTNIFTVYGLLDKAQDLFGDDHNKNGFKMFDSSNYHGQDLLFKDATVRAVPVGEKTTYRGWLGLDYVAALEGMSSQQC
notes: also called MTf
